Positions count from the first letter of the chain named. Numbers in names are those of the source. Read-outs that look alike come from different tables or passages of the source.
Experiments:
[1] = biological target: T1, human CD47 (hCD47) expressed on cells (human, UniProt Q08722 19-323); experiment: flow cytometry, Raji cells, competition with His-hSIRPα
T1 construct: Transfected CHO cells or endogenous CD47 of human cells; also called CHO-hCD47; CD47 on Raji cells
Method: (§1) The percent inhibition was plotted against antibody concentration and the IC50 values were calculated by using a nonlinear regression analysis model of the GraphPad Prism software.

[2] = biological target: T1, human CD47 (hCD47) expressed on cells; experiment: flow cytometry, Raji cells, competition with His-hSIRPα; lower end tied to candidates 14 and 15 by Table 7
Method: as §1

[3] = biological target: T2, hu-sCD47-6His; extracellular domain of human CD47 antigen with 6His-tag (human); experiment: SPR Biacore
T2 construct: also called hCD47-his; soluble hCD47
From the text: (§2) An anti-human or anti-mouse IgG (Fc) was first immobilized on the surface of Serie S Sensor Chips CM5 using the human or mouse antibody capture and amine coupling kits, following the manufacturer's instructions (GE Healthcare). […] The mouse, chimerized or humanized antibodies to be tested were then captured onto the appropriate anti-mouse or anti-human IgG surface in all flow cells except flow cell 1 used as control, at concentration and contact time adjusted so that ˜300 RU were captured on the surface. Binding kinetics were studied by passing increasing concentrations of hCD47-his in a series of five 10 minute injections through all flow cells at a rate of 30 μL/min. […] Following the final injection, buffer was passed across each flow cell for 60 minutes (mouse) or 30 minutes (human) to monitor the dissociation of bound antigen. Regeneration of the binding surface was carried out at the end of the cycle by flowing 3 M MgCl₂ for 60 s at 20 μL/min followed by 10 mM glycine-HCl, pH 1.7 for 180 s at 10 μl/min (for human) or by flowing 10 mM glycine-HCl, ph 1.7 for 360 s at 10 μl/min (for mouse). A second cycle with the same antibodies but no antigen was run as a control. Kinetics binding constants were estimated by non-linear fitting of the sensogram data to the 1:1 binding model provided by the Biacore T200 evaluation software.

[4] = biological target: T1, human CD47 (hCD47) expressed on cells; experiment: flow cytometry, Raji cells
[5] = biological target: T1, human CD47 (hCD47) expressed on cells; experiment: flow cytometry, Raji cells, competition with hSIRPα
[6] = biological target: T1, human CD47 (hCD47) expressed on cells; experiment: flow cytometry on Raji cells, hIgG4 format, delta MFI
[7] = biological target: T1, human CD47 (hCD47) expressed on cells; experiment: flow cytometry on Raji cells, hIgG4 format: inhibition of hSIRPα binding to hCD47
[8] = biological target: T2, hu-sCD47-6His; extracellular domain of …; experiment: ELISA, coated glycosylated hCD47-His
Method: (§3) The EC50 and EC95 values were calculated by using the non-linear regression/log (antibody) versus response (four parameters) model of the GraphPad Prism software.

[9] = biological target: T3, N-deglycosylated soluble hCD47-His (PNGase treated) (human, N-glycans removed with PNGase); experiment: ELISA; against glycosylated hCD47-His
T3 construct: also called deglycosylated-hCD47; N-Deglycosylated hCD47-His
Method: as §3

[10] = biological target: T3, N-deglycosylated soluble hCD47-His …; experiment: ELISA, coated N-deglycosylated hCD47-His
[11] = biological target: T2, hu-sCD47-6His; extracellular domain of …; experiment: ELISA, one-site binding saturation fit, glycosylated hCD47
Method: (§4) The equilibrium binding constant values were calculated by using the binding saturation/one-site binding model of the GraphPad Prism software (mean +/− SD of triplicates).

[12] = biological target: T2, hu-sCD47-6His; extracellular domain of …; experiment: as above; remark: listed apart in the source
Method: (§5) The Bmax values were calculated by using the binding saturation/one-site binding model of the GraphPad Prism software (mean +/− SD of triplicates).

[13] = biological target: T3, N-deglycosylated soluble hCD47-His …; experiment: ELISA, one-site binding saturation fit, deglycosylated hCD47
Method: as §4

[14] = biological target: T3, N-deglycosylated soluble hCD47-His …; experiment: as above; remark: listed apart in the source
Method: as §5

[15] = biological target: T1, human CD47 (hCD47) expressed on cells; experiment: flow cytometry on Raji cells, hIgG4 format, delta MFI; remark: listed apart in the source
[16] = biological target: T1, human CD47 (hCD47) expressed on cells; experiment: flow cytometry on Raji cells, hIgG4 format: inhibition of hSIRPα binding to hCD47; remark: listed apart in the source
[17] = biological target: T2, hu-sCD47-6His; extracellular domain of …; experiment: SPR Biacore; remark: listed apart in the source
From the text: as §2

[18] = biological target: T1, human CD47 (hCD47) expressed on cells; experiment: flow cytometry, Raji cells; remark: listed apart in the source
[19] = biological target: T1, human CD47 (hCD47) expressed on cells; experiment: flow cytometry, Raji cells, competition with hSIRPα; remark: listed apart in the source
[20] = biological target: T1, human CD47 (hCD47) expressed on cells; experiment: cell-based or functional assay
[21] = biological target: T1, human CD47 (hCD47) expressed on cells; experiment: flow cytometry, Raji cells; remark: listed apart in the source
[22] = biological target: T4, mouse CD47 (mCD47) expressed on CHO cells (mouse, UniProt Q61735 19-303); experiment: flow cytometry, CHO-mCD47 cells
T4 construct: whole, on cells; also called CHO-mCD47
T4 sequence (looked up): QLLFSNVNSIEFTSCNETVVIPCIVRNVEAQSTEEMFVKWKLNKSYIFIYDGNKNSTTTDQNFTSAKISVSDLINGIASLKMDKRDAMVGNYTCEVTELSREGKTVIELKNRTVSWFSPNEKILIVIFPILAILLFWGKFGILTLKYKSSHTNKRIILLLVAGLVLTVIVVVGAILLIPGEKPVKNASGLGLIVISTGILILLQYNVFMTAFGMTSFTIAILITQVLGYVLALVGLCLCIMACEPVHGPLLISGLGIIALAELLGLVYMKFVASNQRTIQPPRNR

[23] = biological target: T2, hu-sCD47-6His; extracellular domain of …; experiment: SPR Biacore T200, antibody captured, hCD47-his analyte;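 also: antibodies captured on anti-IgG (Fc) CM5 chip, five sequential 10 min antigen injections at rising concentrations, reference flow cell and antigen-free cycle as controls, 1:1 model fit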
From the text: as §2

[24] = biological target: T1, human CD47 (hCD47) expressed on cells; experiment: flow cytometry, hCD47-CHO cells, competition with His-hSIRPα
Method: Human CD47-transfected cells (3×10⁵ cells/well of 96-well plate) were first incubated at +4° C. for 30 minutes with serial dilutions of anti-CD47 antibodies or isotype control antibody (in mIgG2a or mIgG1 format). […] The percentage inhibition was plotted against antibody concentration and the IC50 values were calculated using a nonlinear regression analysis model of the GraphPad Prism software.

[25] = biological target: T2, hu-sCD47-6His; extracellular domain of …; experiment: SPR Biacore; remark: listed apart in the source
From the text: as §2

[26] = biological target: T1, human CD47 (hCD47) expressed on cells; experiment: flow cytometry, Raji cells; remark: listed apart in the source
[27] = biological target: T2, hu-sCD47-6His; extracellular domain of …; experiment: SPR Biacore; head read as x 10^-4
From the text: as §2

[28] = biological target: T1, human CD47 (hCD47) expressed on cells; experiment: flow cytometry, Raji cells, competition with hSIRPα; remark: listed apart in the source
[29] = biological target: T1, human CD47 (hCD47) expressed on cells; experiment: flow cytometry on Raji cells, hIgG4 format, delta MFI; remark: listed apart in the source
[30] = biological target: T1, human CD47 (hCD47) expressed on cells; experiment: as above; remark: listed apart in the source
[31] = biological target: T1, human CD47 (hCD47) expressed on cells; experiment: as above; remark: listed apart in the source
[32] = biological target: T1, human CD47 (hCD47) expressed on cells; experiment: flow cytometry on Raji cells, hIgG4 format: inhibition of hSIRPα binding to hCD47; remark: listed apart in the source
[33] = biological target: T1, human CD47 (hCD47) expressed on cells; experiment: as above; remark: listed apart in the source
[34] = biological target: T1, human CD47 (hCD47) expressed on cells; experiment: as above; remark: listed apart in the source

B1: Candidate 14, chimeric hIgG format (hIgG1 or hIgG4) (antibody, V domains shown)
VH: QVQLQQPGAELVKPGASLRVSCKASGYTFTNYWMYWVRQRPGRGLEWIGWIDPNSGGTKYNEKFKSKATLTVDKPSSTAYMQLSSLTSEDSAVYNCARGGYTMDYWGQGTSVTVSS
VL: DVVMTQTPLSLPVSLGDQASISCRASQSLVHSNGNTYLHWYLQKPGQSPKLLIYKVSNRFSGVPDRFSGSGSGTDFTLKISRVEAEDLGVYFCSQSTHVPLTFGAGTKLELK
notes: also called Candidate 14 (hIgG format)
With B1 the IC50 [1] was 0.021 µg/mL and the IC50 [2] was 0.14 nM.

B2: Candidate 15, chimeric hIgG format (hIgG1 or hIgG4) (antibody, V domains shown)
VH: QVQLQQPGAELVKPGTSVKLSCKASGYTFINYWIHWVKQRPGRGLEWIGRIDPNTVDAKYNEKFKSKATLTVDKPSSIAYMQLSSLTSEDSAVYYCSRGGYTMDYWGQGTSVTVSS
VL: B1 VL with A25S, K50T, V90I, S94F, L101W, A105G, L111I
notes: also called Candidate 15 (hIgG format)
B2 gave an IC50 [1] of 0.021 µg/mL and an IC50 [2] of 0.14 nM.

B3: h20-H3-L2Y (candidate 20.27), hIgG4-S228P (antibody, V domains shown)
VH: QVQLVQSGAEVKKPGASVKVSCKASGYSFTDYYINWVRQAPGQGLEWMGRIYPGIGNTYYNKKFKGRVTVTRDTSISTAHMELSSLRSDDTAVYYCARGHYGRGMDYWGQGTAVTVSS
VL: DIVMTQSPDSLAVSLGERATINCKSSQSLLNSIDQKNYLAWYQQKPGQPPKLLIYYASTKESGVPDRFSGSGSGTDFTLTISSLQAEDVAVYYCQQHYSTPWTFGGGTKVEIKR
notes: also called H20-VH3-VL2,Y
Work on B3 yielded a Kd [3] of 2.06 nM, a koff [3] of 0.000584 s⁻¹ and a kon [3] of 292000 M⁻¹ s⁻¹. The EC50 [4] was 0.0854 µg/mL, the IC50 [5] was 0.101 µg/mL and the “EC50 (read off the curve)” value [6] was roughly 0.1 µg/mL. For the same binder, the “IC50 (read off the curve)” value [7] was roughly 0.2 µg/mL.

B4: h20-H2-L5Y (candidate 20.26), huIgG4_S228P format (antibody, V domains shown)
VH: B3 VH with V70I, I76A, H80Y, D89E, A113L
VL: B3 VL with S83G, Y93F, K113R
notes: also called H20-VH2-VL5,Y; h2O-H2L5Y
In the case of B4, the Kd [3] is reported as 2.32 nM, the koff [3] is reported as 0.000699 s⁻¹ and the kon [3] is reported as 306000 M⁻¹ s⁻¹. It also gave an EC50 [4] of 0.0975 µg/mL, an EC50 [8] of 0.044 nM and an EC95 [8] of 1.33 nM. The “EC50 ratio Deglycosylated/Glycosylated” value [9] was 2.2 ratio, the “EC95 ratio Deglycosylated/Glycosylated” value [9] was 8.5 ratio and the EC50 [10] was 0.096 nM. For the same binder, the EC95 [10] was 11.3 nM, the IC50 [5] was 0.113 µg/mL and the equilibrium binding constant [11] was 43.6 pM. The Bmax [12] was 2.85 OD value, the equilibrium binding constant [13] was 55.7 pM and the Bmax2 [14] was 1.97 OD value. For the same binder, the “EC50 (read off the curve)” value [15] was roughly 0.1 µg/mL and the “IC50 (read off the curve)” value [16] was roughly 0.2 µg/mL.

B5: hIgG4 chimeric candidate 22 (mouse VH/VL, human Fcγ4-S228P and human Kappa backbone) (antibody, V domains shown)
VH: QVQLQQPGAELVKPGASVKLSCKASGYTFTTYWMHWVKQRPGQGLEWIGMIHPNSGTTNYNEKFKSKATLTVDKSSSSTYMQLSSLTSEDSAVYYCTRSHYYDGHFSYWGQGTLVTVSA
VL: DIVMSQSPSSLAVSAGEKVTMSCKSSQSLLNSRTRKNYLAWYQQKPGQSPKLLIYWASTRESGVPDRFTGSGSGTDFTLTISSVQAEDLAVYYCKQSYNLWTFGGGTRLEIKR
notes: hIgG4-S228P/kappa; also called Chim; 22
In the case of B5, the Kd [17] is reported as 12.2 nM, the koff [17] is reported as 0.000381 s⁻¹ and the kon [17] is reported as 31200 M⁻¹ s⁻¹. For the same binder, the EC50 [18] was 0.122 µg/mL, the EC50 [8] was 0.0387 nM and the EC95 [8] was 4.67 nM. For the same binder, the “EC50 ratio Deglycosylated/Glycosylated” value [9] was 1.1 ratio, the “EC95 ratio Deglycosylated/Glycosylated” value [9] was 1.4 ratio and the EC50 [10] was 0.042 nM. It also gave an EC95 [10] of 6.67 nM, an IC50 [19] of 0.14 µg/mL and an equilibrium binding constant [11] of 34.4 pM. The Bmax [12] was 2.85 OD value, the equilibrium binding constant [13] was 31.8 pM and the Bmax2 [14] was 2.57 OD value.

B6: Candidate 20 (VL008-AL18-14G4-14K1), mouse IgG (antibody, V domains shown)
VH: QVQLKQSGAELVRPGASVKLSCKASGYSFTDYYINWVKQRPGQGLEWIARIYPGIGNTYYNKKFKGKATLTAEKSSSTAYMQLNSLTSEDSAVYFCARGHYGRGMDYWGQGTSVTVSS
VL: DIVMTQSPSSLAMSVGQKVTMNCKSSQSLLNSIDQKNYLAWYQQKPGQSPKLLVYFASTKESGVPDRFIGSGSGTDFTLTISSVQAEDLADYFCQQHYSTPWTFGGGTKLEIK
notes: Recombinant mouse IgG2a or mIgG1 format, by assay; also called antibody 20
With B6 the “Phagocytic index, Raji cells and human macrophages, antibody at 0.125 µg/mL” value [20] was 119 Raji cells ingested per 100 macrophages, the EC50 [21] was 0.096 µg/mL and the binding result [22] was “no binding (tested: 7.3 µg/mL highest concentration)”. It also gave a Kd [23] of 4.16 nM, a koff [23] of 0.000418 s⁻¹ and a kon [23] of 101000 M⁻¹ s⁻¹. For the same binder, the IC50 [24] was 0.44 µg/mL.

B7: hIgG4 chimeric candidate 20 (mouse VH0/VL0, human Fcγ4-S228P and human Kappa backbone) (antibody, V domains shown)
VH: B6 VH
VL: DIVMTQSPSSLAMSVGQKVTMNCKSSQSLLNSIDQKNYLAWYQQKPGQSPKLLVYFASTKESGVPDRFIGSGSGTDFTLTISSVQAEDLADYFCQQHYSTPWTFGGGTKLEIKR
notes: hIgG4-S228P/kappa; also called Chim; 20; Chim 20
With B7 the Kd [25] was 3.22 nM, the kon [25] was 169000 M⁻¹ s⁻¹ and the Kd [3] was 2.48 nM. The koff [3] was 0.000543 s⁻¹, the kon [3] was 225000 M⁻¹ s⁻¹ and the EC50 [26] was 0.15 µg/mL. The EC50 [4] was 0.0751 µg/mL, the binding result [22] was “no binding” and the koff [27] was 0.000505 s⁻¹. For the same binder, the EC50 [8] was 0.028 nM, the EC95 [8] was 0.667 nM and the “EC50 ratio Deglycosylated/Glycosylated” value [9] was 1.7 ratio. For the same binder, the “EC95 ratio Deglycosylated/Glycosylated” value [9] was 5 ratio, the EC50 [10] was 0.0474 nM and the EC95 [10] was 3.33 nM. For the same binder, the IC50 [28] was 0.138 µg/mL, the IC50 [5] was 0.11 µg/mL and the equilibrium binding constant [11] was 27.3 pM. The Bmax [12] was 2.9 OD value, the equilibrium binding constant [13] was 38.8 pM and the Bmax2 [14] was 2.2 OD value. For the same binder, the “EC50 (read off the curve)” value [15] was roughly 0.1 µg/mL, the “EC50 (read off the curve)” value [6] was roughly 0.1 µg/mL and the “EC50 (read off the curve)” value [29] was roughly 0.1 µg/mL. The “EC50 (read off the curve)” value [30] was roughly 0.1 µg/mL, the “EC50 (read off the curve)” value [31] was roughly 0.1 µg/mL and the “IC50 (read off the curve)” value [16] was roughly 0.2 µg/mL. The “IC50 (read off the curve)” value [7] was roughly 0.2 µg/mL, the “IC50 (read off the curve)” value [32] was roughly 0.2 µg/mL and the “IC50 (read off the curve)” value [33] was roughly 0.2 µg/mL. The “IC50 (read off the curve)” value [34] was roughly 0.2 µg/mL.

Reference: patent publication US20220356245A1 (FORTY SEVEN, published 2022)
